{"source": "paper PMC1298937", "about": "“A Novel Endogenous Inhibitor of the Secreted Streptococcal NAD-Glycohydrolase” (PLoS Pathogens, 2005)", "key": {"[1]": {"biological_target": "T1, SPN secreted by S. pyogenes JRS4 (culture supernatant) (Streptococcus pyogenes strain JRS4 …)", "T1 chain": "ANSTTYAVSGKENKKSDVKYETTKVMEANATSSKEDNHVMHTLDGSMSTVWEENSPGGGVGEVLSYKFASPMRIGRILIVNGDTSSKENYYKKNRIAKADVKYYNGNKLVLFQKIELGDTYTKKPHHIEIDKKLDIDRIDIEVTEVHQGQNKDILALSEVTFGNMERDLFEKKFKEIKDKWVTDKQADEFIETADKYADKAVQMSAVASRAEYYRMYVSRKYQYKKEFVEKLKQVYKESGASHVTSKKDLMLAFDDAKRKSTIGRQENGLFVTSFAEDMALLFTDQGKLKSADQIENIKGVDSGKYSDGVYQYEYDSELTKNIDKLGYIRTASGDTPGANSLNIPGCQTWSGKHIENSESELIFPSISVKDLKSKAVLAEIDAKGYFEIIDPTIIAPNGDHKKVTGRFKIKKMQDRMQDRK", "assay": "enzyme inhibition kinetics (competitive model); apparent constant; purified IFS (up to 2.3 nM) with SPN from JRS4 culture supernatant (0.125 U/ml) and varying beta-NAD+ (up to 1.2 mM) in PBS at 37 C; fluorescence of residual beta-NAD+; simultaneous fit", "details": "one partner purified"}, "[2]": {"biological_target": "6X-His-tagged SPN (SPN-H) expressed from pMAM3.18 (Streptococcus pyogenes strain JRS4)", "assay": "SEC + other: densitometry of SDS-PAGE; SPN-IFS complex assembled in vivo and purified from the cytoplasm of E. coli TOP10(pMAM3.18); Superdex 75 HR 10/30, 20 mM Tris pH 8.5, 100 mM NaCl; peak fractions on Coomassie-stained SDS-PAGE compared with known concentrations of purified SPN and IFS"}}}
{"binder": "Immunity factor for SPN (IFS) with C-terminal c-myc and 6X-His tags (IFS-H), expressed from pMAM3.19 (natural protein, source: E. coli TOP10(pMAM3.19), arabinose-induced: cytoplasmic extract; purified (TALON, Resource Q); not shown: c-myc, C-terminal, kept; 6X-His, C-terminal, kept) MYKVPKGLEHYQKMFQKEVTVNDLKKYLIGSDKEYRITRRDSYMGDISDPEVILEYGVYPAFIKGYTQLKANIEEALLEMSNSGQALDIYQAVQTLNAENMLLNYYESLPFYLNRQSILANITKALKDAHIREAMAHYKLGEFAHYQDTMLDMVERTIETF", "values": [{"measurement": "Ki", "setting": "[1]", "result": 2, "unit": "nM"}, {"measurement": "stoichiometry N", "setting": "[2]", "result": 1}]}
